Data published in paper PMC4072508, “Genome-Wide Prediction and Validation of Peptides That Bind Human Prosurvival Bcl-2 Proteins” (PLoS Computational Biology, 2014).

T1: Bfl-1, Q16548
T1 chain: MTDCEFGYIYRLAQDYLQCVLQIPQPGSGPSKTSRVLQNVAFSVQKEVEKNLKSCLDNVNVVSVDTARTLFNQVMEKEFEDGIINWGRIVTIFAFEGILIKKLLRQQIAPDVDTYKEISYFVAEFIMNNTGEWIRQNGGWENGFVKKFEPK

T2: Mcl-1, Q07820
T2 chain: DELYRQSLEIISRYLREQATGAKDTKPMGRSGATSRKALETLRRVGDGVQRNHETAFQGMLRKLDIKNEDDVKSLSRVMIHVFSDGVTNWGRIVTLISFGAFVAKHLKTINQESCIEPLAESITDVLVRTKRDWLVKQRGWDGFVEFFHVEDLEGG


Columns and labels:
Test in all cases: peptide SPOT array, c-Myc-tagged receptor at 1 uM or 100 nM, anti-c-Myc-Cy3
[1] = biological target: Bcl-xL, Q07817
[2] = biological target: T1, Bfl-1, Q16548
[3] = biological target: T2, Mcl-1, Q07820

Chain of Bcl-xL, Q07817 (Q07817 1-209): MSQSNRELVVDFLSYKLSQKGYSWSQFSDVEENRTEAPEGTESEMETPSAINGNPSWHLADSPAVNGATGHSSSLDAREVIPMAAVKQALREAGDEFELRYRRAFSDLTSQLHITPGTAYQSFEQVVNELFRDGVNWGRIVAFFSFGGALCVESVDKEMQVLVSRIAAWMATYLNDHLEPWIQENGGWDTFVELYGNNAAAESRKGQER

Binder | SPOT signal as a fraction of Bim BH3's signal on the same receptor and array [1] | SPOT signal as a fraction of Bim BH3's signal on the same receptor and array [2] | SPOT signal as a fraction of Bim BH3's signal on the same receptor and array [3]
KKLKNLEGNELQRHADEFLLDLGHHE [FUT8] | 0.12 | 0.05 | 0.05
MPYMEAVIHEIQRFLDVIPMSLARRV [CYP2A6] | 0.14 | 0.06 | 0.08
FSKREKLVEILRNILDERTMVFVETK [DDX4] | 0.08 | 0.08 | 0.15
TGSLCEIATTLSFELDGFLWVKSGSV [CRB1] | 0.07 | 0.03 | 0.04
HQAEVQIARKLQCILDQFHRLHVQQH | 0.27 | 0.1 | 0.1
HQAEVQIARKDQCIADQFHRLHVQQH | 0.03 | 0.01 | 0.01
PDKRLTLSQIYQYVLDNFPFYNKSKA [FOXI1] | 0.76 | 0.41 | 0.39

More lines, now with the values ahead:

SPOT signal as a fraction of Bim BH3's signal on the same receptor and array [1] | SPOT signal as a fraction of Bim BH3's signal on the same receptor and array [2] | SPOT signal as a fraction of Bim BH3's signal on the same receptor and array [3] | Binder
0.09 | 0.03 | 0.04 | PSECETLGSNLGHNADLLNENNILAK [ZFP90]
0.06 | 0.05 | 0.05 | VLELHPGAQRLHIGCDEVYYLGEGEA [HEXDC]
0.3 | 0.36 | 0.34 | GGRVKLVHSALIQLGDSLSHKGNEFW [WDR60]
0.1 | 0.06 | 0.13 | VHKHSRLAEVDQLGSDILPQYKQEAP [KCNH1]
0.07 | 0.04 | 0.03 | IQENVDISTVDQIFADEVLGSGQFGI [PRKD3]
0.07 | 0.05 | 0.06 | GYPFNDVCQWDIDRADLIFVVFDPTK [SRL]
0.11 | 0.07 | 0.08 | FVGYNSTGAEDRHWSDMLANPRRPIA [SYT1]
